This experiment has as its target T1, His-tag fused human PJ01087 protein (Protein-Y) (human, UniProt O95886 1-979).
T1 construct: Used as 1% Triton-X supernatant of E. coli; also called His-PJ01087; not shown: N-terminal His-tag and linker encoded by vector pDEST17
T1 sequence: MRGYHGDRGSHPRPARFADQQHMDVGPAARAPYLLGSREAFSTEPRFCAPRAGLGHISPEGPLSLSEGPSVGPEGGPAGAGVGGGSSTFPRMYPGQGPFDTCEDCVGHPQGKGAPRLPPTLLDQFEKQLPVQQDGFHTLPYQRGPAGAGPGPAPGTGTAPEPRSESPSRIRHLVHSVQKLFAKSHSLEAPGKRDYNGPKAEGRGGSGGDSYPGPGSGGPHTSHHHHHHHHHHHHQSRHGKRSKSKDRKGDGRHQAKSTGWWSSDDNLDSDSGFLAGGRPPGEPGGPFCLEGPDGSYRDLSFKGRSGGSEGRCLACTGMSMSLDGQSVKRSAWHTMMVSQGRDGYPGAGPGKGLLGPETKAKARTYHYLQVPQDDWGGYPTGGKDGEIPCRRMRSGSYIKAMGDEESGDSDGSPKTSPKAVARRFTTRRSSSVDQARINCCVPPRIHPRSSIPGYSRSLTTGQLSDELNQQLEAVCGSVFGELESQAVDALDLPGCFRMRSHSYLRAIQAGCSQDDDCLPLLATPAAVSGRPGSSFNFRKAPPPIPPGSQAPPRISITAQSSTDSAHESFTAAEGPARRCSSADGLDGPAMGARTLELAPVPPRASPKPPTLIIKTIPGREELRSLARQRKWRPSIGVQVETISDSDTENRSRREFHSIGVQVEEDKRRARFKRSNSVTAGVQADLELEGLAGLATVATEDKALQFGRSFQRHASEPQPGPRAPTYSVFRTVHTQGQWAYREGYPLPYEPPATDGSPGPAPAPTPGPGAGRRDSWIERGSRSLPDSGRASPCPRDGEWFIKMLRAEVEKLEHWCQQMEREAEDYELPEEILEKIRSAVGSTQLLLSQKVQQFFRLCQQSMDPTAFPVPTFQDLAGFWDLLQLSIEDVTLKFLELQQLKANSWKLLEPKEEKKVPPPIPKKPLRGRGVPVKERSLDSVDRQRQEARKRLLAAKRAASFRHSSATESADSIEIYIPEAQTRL
In words: Immunoprecipitation with anti-GST antibody and Protein G-sepharose, Western blot with anti-His-tag antibody. On the procedure: After adding 1 μl of anti-GST antibody (SIGMA) and agitating for 1 hour at 4° C., a further 30 μl of Protein G-sepharose was added thereto, and agitation proceeded for an additional 6 hours at 4° C. Thereafter, the supernatant was removed by centrifugation, and Protein G-sepharose was washed three times with 500 μl of 1% Triton-X/20 mM Tris (pH 7.4). After the washes, 30 μl of 2× sample buffer (2% SDS/50 mM Tris (pH 6.8)/30% glycerol/0.01% bromophenol blue) containing 2-mercaptoethanol was added to Protein G-sepharose and mixed. The samples were boiled for 2 minutes, subjected to electrophoresis on a 5%-20% polyacrylamide gel, and transferred onto a PVDF membrane. Then Western blotting was performed with anti-GST antibodies and anti-His-tag antibodies.
However, when Protein-Y (His-PJ01087) was reacted with Protein-X (GST-hj02537) or the Protein-X mutant (GST-hj (GK−)) to perform immunoprecipitation with an anti-GST antibody followed by detecting with an anti-His-tag antibody, no band showing Protein-Y was detected. Thus, no result showing that binding of Protein-Y to Protein-X exists could be obtained (lanes 5 or 6 in FIG. 23).
(A western blot detects proteins with antibodies after separation by electrophoresis.)

B1: GST fused novel PSD (Protein-X) (hj02537) (other, not shown: a dimerising Fc or GST)
chain: MPALSTGSGSDTGLYELLAALPAQLQPHVDSQEDLTFLWDMFGEKSLHSLVKIHEKLHYYEKQSPVPILHGAAALADDLAEELQNKPLNSEIRELLKLLSKPNVKALLSVHDTVAQKNYDPVLPPMPEDIDDEEDSVKIIRLVKNREPLGATIKKDEQTGAIIVARIMRGGAADRSGLIHVGDELREVNGIPVEDKRPEEIIQILAQSQGAITFKIIPGSKEETPSKEGKMFIKALFDYNPNEDKAIPCKEAGLSFKKGDILQIMSQDDATWWQAKHEADANPRAGLIPSKHFQERRLALRRPEILVQPLKVSNRKSSGFRRSFRLSRKDKKTNKSMYECKKSDQYDTADVPTYEEVTPYRRQTNEKYRLVVLVGPVGVGLNELKRKLLISDTQHYGVTVPHTTRARRSQESDGVEYIFISKHLFETDVQNNKFIEYGEYKNNYYGTSIDSVRSVLAKNKVCLLDVQPHTVKHLRTLEFKPYVIFIKPPSIERLRETRKNAKIISSRDDQGAAKPFTEEDFQEMIKSAQIMESQYGHLFDKIIINDDLTVAFNELKTTFDKLETETHWVPVSWLHS
notes: Crude 1% Triton-X E. coli supernatant used for immunoprecipitation; also called GST-hj02537
Regarding B1, the binding result is “no binding”.
